Assay results taken from publication PMC11413682, “SARS-CoV-2 ORF10 hijacking ubiquitination machinery reveals potential unique drug targeting sites” (Acta Pharmaceutica Sinica. B, 2024).

Molecular target: T1, CUL2^ZYG11B (residues 490–728) (human, UniProt Q9C0D3 490-728)
T1 construct: human ZYG11B, substrate receptor of the cullin-2 RING E3 ligase; ARM3–ARM8 repeats, residues 490–728; also called CUL2^ZYG11B(490–728); ARM3–ARM8; source: E. coli, purified (Ni-NTA, TEV cleavage, HiTrap Q HP, gel filtration); not shown: His6, N-terminal, cleaved; SUMO, N-terminal, cleaved
T1 sequence (Q9C0D3 490-728): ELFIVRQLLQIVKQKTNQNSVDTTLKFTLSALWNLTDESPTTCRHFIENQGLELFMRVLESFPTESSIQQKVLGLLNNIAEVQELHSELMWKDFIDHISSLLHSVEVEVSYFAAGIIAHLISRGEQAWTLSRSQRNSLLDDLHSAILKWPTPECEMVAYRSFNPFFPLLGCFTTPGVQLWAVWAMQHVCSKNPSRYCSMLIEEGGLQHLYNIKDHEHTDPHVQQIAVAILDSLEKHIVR
Experiment: ITC; MicroCal iTC200; peptides (0.5–1 mmol/L) in the syringe, CUL2^ZYG11B(490–728) (0.03 mmol/L) in the cell; 18 injections of 2 μL; repeated 3 times
Settings: both partners purified

B1: SARS-CoV-2 ORF10 N5 peptide (peptide)
peptide: GYINV
notes: first five residues of the SARS-CoV-2 ORF10 N-terminal extension; also called five-residue peptide; source: synthetic peptide
B1 showed a Kd of 2940 nM.
